Results from patent publication US11858972B2, “Micropeptides and uses thereof” (FUNDACIÓ PRIVADA INSTITUT D'INVESTIGACIÓ ONCOLÒGICA DE VALL …, priority 2018, dated 2024).

Test system: CDK inhibitors p27 and p21
Assay: p27 and p21 expression by qPCR and Western Blot in BxPC-3
Format: cell-based
Conditions: BxPC-3, doxycycline-induced expression
Excerpt: FIG. 5. Micropeptide of sequence SEQ ID NO: 1 overexpression induces cell cycle arrest and cellular senescence. BxPC-3 cells were transduced with an inducible lentivirus coding HA-SEQ ID NO: 1. Micropeptide of sequence SEQ ID NO: 1 expression was induced by doxycycline treatment for 4 days. (A) Phase contrast images of SEQ ID NO:1-expressing cells and control cells. (B) Cell viability analysis by CellTiter-Glo assay. (C) Cell cycle analysis by flow cytometry. Left, histogram plots. Right, quantification of the number of cells in every cell cycle phase (D) Analysis of p27 and p21 expression by qPCR. (E) Western Blot of the indicated cells using anti-HA and anti-p21 antibodies. (F) Quantification of the number of SA-β-Gal positive cells in doxycycline-treated and untreated cells. (G) Representative pictures of the cell quantified in (F). Graphs show the mean±SEM, using at least 3 technical replicates. **P<0.01 ***P<0,001 **** P<0.0001, two-tailed t-test.
Total RNA was extracted with Trizol® and treated with TURBO™ DNase following provider's recommendations. 1 μg of RNA was retrotranscribed using iScript™ cDNA Synthesis Kit (BioRad). Gene expression was analysed by quantitative real time PCR using PowerUp SYBR Green Master Mix (Thermo Fisher Scientific) in the 7900HT Fast Real-Time PCR System (Applied Biosystems). Cycle threshold (Ct) values were normalized to GAPDH. […]

B1: SEQ ID NO: 1: highly conserved 87 aa micropeptide coded by the lncRNA TINCR; predicted ubiquitin-like protein (protein, listed as Homo sapiens)
chain: MEGLRRGLSRWKRYHIKVHLADEALLLPLTVRPRDTLSDLRAQLVGQGVSSWKRAFYYNARRLDDHQTVRDARLQDGSVLLLVSDPR
- expression of the CDK inhibitors p27 and p21: upregulation
